Measured values: patent publication US7064106B2, “Gene and use thereof” (Takeda Chemical Industries, Ltd., priority 1999, dated 2006)
Changes are numbered by the printed parent chain.

Legend:
Format in all cases: cell-based
profilin IIL = target: T1, profilin IIL (Homo sapiens, UniProt P35080); assay: Yeast two-hybrid HIS3 growth test, MD36 and profilin family; details: S. cerevisiae Y190; 40 mM 3-amino-1,2,4-triazole
T1 construct: expressed in transfected cells; host or cells: Saccharomyces cerevisiae Y190
T1 sequence (P35080 1-140): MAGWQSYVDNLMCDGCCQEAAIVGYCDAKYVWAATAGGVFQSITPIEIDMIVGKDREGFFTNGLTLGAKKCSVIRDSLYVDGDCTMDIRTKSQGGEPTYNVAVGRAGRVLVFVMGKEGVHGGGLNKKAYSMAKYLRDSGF
Procedure: Using as a template human skeletal muscle-derived cDNA and as an enzyme Pfu polymerase (STRATAGENE), the reaction was carried out at 95° C. for 30 seconds, at 65° C. for 45 seconds and at 72° C. for 60 seconds, for 35 cycles. As a result of PCR, the DNA fragment of 745 bp was found, in addition to the DNA fragment of 423 bp or profilin II, and named profilin IIL. The base sequence for cDNA of profilin IIL is shown by SEQ ID NO:29, and the amino acid sequence of profilin II is shown by SEQ ID NO:28.
The protein-protein interaction between MD36 and the profilin family was detected by the yeast two-hybrid system. Based on pGBT9 (CLONTECH), expression plasmids were constructed to express the coding regions of profiling I (Evangelista et al., Science, 276, 118–122, 1997; Imamura et al., EMBO J., 16, 2745–2755, 1997; Tanaka, Biochem. Biophys. Res. Commun., 267, 479–481, 2000), profilin II (Schluter et al., Biohim. Biophys. Acta, 1359, 97–109, 1997), and profiling IIL in the form fused to yeast GAL4-DNA-binding domain protein under control of yeast ADH1 promoter. These plasmids were named pG-PFNI, pG-PFNII and pG-PFNIII, respectively (yeast selection marker was TRP1). […]

[1] = target: T2, C-terminal cytoplasmic domain (amino acid numbers 468–510) of mouse GLUT4 (Mus musculus, UniProt P14142); assay: Yeast two-hybrid β-galactosidase assay, interaction with glucose transporter; details: bait mouse GLUT4 (468–510); prey human MD36 cDNA 2995–3674 fused to GAL4-AD
T2 construct: amino acid numbers 468–510; expressed in transfected cells; host or cells: Saccharomyces cerevisiae Y190
T2 sequence (P14142 467-509): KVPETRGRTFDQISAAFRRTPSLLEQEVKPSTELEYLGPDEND
Procedure: As the bait sequence, the C-terminal cytoplasmic domain (amino acid numbers 468–510; SEQ ID NO:13 and SEQ ID NO:14) of mouse GLUT4 was used. For control, similar procedures were performed using the C-terminal cytoplasmic domain (amino acid numbers 451–492) of mouse GLUT1, which is the other protein of glucose transporters. These sequences were isolated from the respective cDNAs by PCR using pfu polymerase (manufactured by Stratagene, Inc.) and constructed to be expressed as the fusion proteins in the GAL4-BD sequence of pGBT9 (manufactured by Clontech, Inc.). On the other hand, human MD36 cDNA (base numbers 2995–3674 in SEQ ID NO:3) fused to GAL4-AD was used as the prey sequence. S. Cerevisiae Y190 was transformed by these plasmids, and the binding activity of MD36 to each of the glucose transporters was assayed in terms of the β-galactosidase activity.

profilin I = assay: Yeast two-hybrid HIS3 growth test, MD36 and profilin family; details: S. cerevisiae Y190; 40 mM 3-amino-1,2,4-triazole
Text: (§1) The protein-protein interaction between MD36 and the profilin family was detected by the yeast two-hybrid system. Based on pGBT9 (CLONTECH), expression plasmids were constructed to express the coding regions of profiling I (Evangelista et al., Science, 276, 118–122, 1997; Imamura et al., EMBO J., 16, 2745–2755, 1997; Tanaka, Biochem. Biophys. Res. Commun., 267, 479–481, 2000), profilin II (Schluter et al., Biohim. Biophys. Acta, 1359, 97–109, 1997), and profiling IIL in the form fused to yeast GAL4-DNA-binding domain protein under control of yeast ADH1 promoter. These plasmids were named pG-PFNI, pG-PFNII and pG-PFNIII, respectively (yeast selection marker was TRP1). On the other hand, expression plasmids that express the full-length sequence (SEQ ID NO:1) of MD36, which is IRAP-BP protein, or the coding region from this N-terminus to the sequence (SEQ ID NO:33) including the proline-rich domain in the form fused to yeast […] activated domain protein under control of yeast ADH1 promoter was constructed based on pACT2 (CLONTECH), and named pACT-MD36 and pACT-MD36NT, respectively (yeast selection marker was LEU2). pG-PFNI, pG-PFNII, pG-PFNIII or, pGBT9 for control was co-transfected to yeast Saccharomyces cerevisiae Y190 together with pACT-MD36 or pACT-MD36NT, and yeast strains bearing plasmids from the two were selected on SD medium free of tryptophan and leucine. S. cerevisiae Y190 is originally a histidine auxotrophic strain but when the introduced proteins on the plasmids show the interactions, reporter gene HIS3 is expressed and the strain becomes capable of growing on a histidine-free plate. The yeast strain acquired was spread on tryptophan, leucine and histidine-free SD medium supplemented with 40 mM 3-amino-1,2,4-triazole.

profilin II = target: T3, profilin II (Homo sapiens, UniProt P35080); assay: as above; details: S. cerevisiae Y190; 40 mM 3-amino-1,2,4-triazole
T3 construct: expressed in transfected cells; host or cells: Saccharomyces cerevisiae Y190
T3 sequence (P35080 1-140 isoform P35080-2): T1 sequence (P35080 1-140) with V109A, F112I, G123T, S130E, M131L, K133L, D137R, G139D, F140V
Text: as §1

B1: MD36: human skeletal muscle-derived IRAP binding protein, SEQ ID NO:1; C-terminal part (bases 2995–3674) used in binding tests (protein, listed as Homo sapiens)
chain: MAGGEDRGDGEPVSVVTVRVQYLEDTDPFACANFPEPRRAPTCSLDGALPLGAQIPAVHRLLGAPLKLEDCALQVSPSGYYLDTELSLEEQREMLEGFYEEISKGRKPTLILRTQLSVRVNAILEKLYSSSGPELRRSLFSLKQIFQEDKDLVPEFVHSEGLSCLIRVGAAADHNYQSYILRALGQLMLFVDGMLGVVAHSDTIQWLYTLCASLSRLVVKTALKLLLVFVEYSENNAPLFIRAVNSVASTTGAPPWANLVSILEEKNGADPELLVYTVTLINKTLAALPDQDSFYDVTDALEQQGMEALVQRHLGTAGTDVDLRTQLVLYENALKLEDGDIEEAPGAGGRRERRKPSSEEGKRSRRSLEGGGCPARAPEPGPTGPASPVGPTSSTGPALLTGPASSPVGPPSGLQASVNLFPTISVAPSADTSSERSIYKLHQTASVWAPESPPVPQSPPGQARLEARFLENVAAAETEKQVALAQGRAETLAGAMPNEAGGHPDARQLWDSPETAPAARTPQSPAPCVLLRAQRSLAPEPKEPLIPASPKAEPIWELPTRAPRLSIGDLDFSDLGEDEDQDMLNVESVEAGKDIPAPSPPLPLLSGVPPPPPLPPPPPIKGPFPPPPPLPLAAPLPHSVPDSSALPTKRKTVKLFWRELKLAGGHGVSASRFGPCATLWASLDPVSVDTARLEHLFESRAKEVLPSKKAGEGRRTMTTVLDPKRSNAINIGLTTLPPVHVIKAALLNFDEFAVSKDGIEKLLTMMPTEEERQKIEEAQLANPDIPLGPAENFLMTLASIGGLAARLQLWAFKLDYDSMEREIAEPLFDLKVGMEQLVQNATFRCILATLLAVGNFLNGSQSSGFELSYLEKVSEVKDTVRRQSLLHHLCSLVLQTRPESSDLYSEIPALTRCAKVDFEQLTENLGQLERRSRAAEESLRSLAKHELAPALRARLTHFLDQCARRVAMLRIVHRRVCNRFHAFLLYLGYTPQAAREVRIMQFCHTLREFALEYRTCRERVLQQQQKQATYRERNKTRGRMITETEKFSGVAGEAPSNPSVPVAVSSGPGRGDADSHASMKSLLTSRPEDTTHNRRSRGMVQSSSPIMPTVGPSTASPEEPPGSSLPSDTSDEIMDLLVQSVTKSSPRALAARERKRSRGNRKSLRRTLKSGLGDDLVQALGLSKGPGLEV
growth of yeast on tryptophan, leucine and histidine-free SD medium (profilin IIL): Growth of the yeast was noted
binding activity of MD36 to glucose transporter in terms of β-galactosidase activity [1]: bound
growth of yeast on tryptophan, leucine and histidine-free SD medium (profilin I): did not grow
growth of yeast on tryptophan, leucine and histidine-free SD medium (profilin II): did not grow
